Laboratory results taken from publication doi:10.1101/2022.06.09.495492, “An atypical F-actin capping protein modulates cytoskeleton behaviors crucial to colonization of Trichomonas vaginalis” (bioRxiv, 2022).

B1: His-TvFACPα (natural protein)
chain: MSESENIKIIKTFLANAPPGEYEQCTAALRSIVNDEDLINRARSETLKTWAEEECIVVDVEDHKVIICKEACQRDGIYVDPVTSSLITYDFESRIATPIGDQANMSDFAKELQEELTAYAKNAYKENAAAGVYDTNNGIVIVLRGSSISLKNFRTGKTVAKYTLSKSGSLEGKIVSIQHFFEKGNAVCQHDGDCNTTCSFGDAKSVVKAIRTFEDEWLADYKTTLEKIGTNVLFQLRRKFPYSKQKINWQQEITVGGGMKC
notes: also called His-TvFACPα wild type; Wt; source: recombinant from pET28-His-TvFACPα, purified to homogeneity (protocol of the supplier, QIAGEN)
B2: HA-TvFACPα (natural protein)
chain: B1 chain
notes: also called HA-TvFACPα wild type; source: T. vaginalis TH17 trophozoites, transgenic (Flp-HA-TvFACPα), in lysate

Columns and labels:
[1] = target: T1, GST-Tvactin (T. vaginalis, UniProt A0A8U0WPZ0 1-376); experiment: ELISA; solid-phase binding: 2.5 μM F-actin in F-buffer coated on a 96-well microplate; His-TvFACPα or His-△237 at 0-80 μM, 4°C overnight; anti-6×His detection, OD450; Scatchard plots; settings: both partners purified
T1 construct: The same construct stands as GST-Tvactin on beads (pull-down), as G-actin (in G-buffer) and as F-actin (polymer, in F-buffer); the assays tell these apart; No removal of GST is described; also called GST fused-α-actin; G-actin; source: polymerized to F-actin in F-buffer), purified on glutathione-conjugated sepharose beads

[2] = target: T1, GST-Tvactin; experiment: ELISA; solid-phase binding: 2.5 μM G-actin in G-buffer coated on a 96-well microplate; His-TvFACPα or His-△237 at 0-80 μM, 4°C overnight; anti-6×His detection, OD450; Scatchard plots; settings: both partners purified
[3] = target: T2, α-actin, endogenous (T. vaginalis) (T. vaginalis (endogenous in TH17 …, UniProt A0A8U0WPZ0 1-376)); experiment: co-sedimentation; actin biochemical fractionation of trophozoite lysates (Cytoskeleton Inc kit): 100,000× g for 1 hr, F-actin and associated proteins in the pellet, G-actin in the supernatant; western blotting; non-transgenic and transgenic TH17, flagellate and amoeboid forms, DMSO or TBB treatment; settings: partners not purified
T2 construct: α-actin of Trichomonas vaginalis detected by an anti-α-actin antibody as a 42-kDa band; In the cell fractionation it stands as F-actin in the 100,000× g pellet; also called 42-kDa α-actin; F-actin

| Binder | Kd [1] [µM] | Kd [2] [µM] | co-sedimented with F-actin, fold of the endogenous form of the non-transfectant [3] [fold] |
| --- | --- | --- | --- |
| B1 | 8.36 | 4.45 |  |
| B2 |  |  | ~2 |
